This is an account of results in paper PMC12376597, “High‐Throughput MicroED for Probing Ion Channel Dynamics” (Advanced Science, 2025).

Series [1] concerns the target NaK2CNG, mutant of NaK with the selectivity filter substituted to TVGDTPP, lacking the first 19 residues (UniProt Q81HW2). Briefly: crystal structure; MicroED (electron diffraction) of single microcrystals grown in Tris pH 8.0 and 60-80% MPD; protein in 0.2% DM with 150 mM NaCl (NaK) or 150 mM KCl (NaK2CNG); space group I4, two monomers in the asymmetric unit, tetramers generated by crystal symmetry.

Series [2] concerns the molecule itself. The description is as above.

In series [1], “NaK2CNG, mutant of NaK with the selectivity filter substituted to TVGDTPP, lacking the first 19 residues (from UniProt Q81HW2 20-114) (natural protein)” showed a stoichiometry N of 4.

B1: NaK, non-selective ion channel, lacking the first 19 residues (natural protein, UniProt Q81HW2 20-114, looked up)
chain: KDKEFQVLFVLTILTLISGTIFYSTVEGLRPIDALYFSVVTLTTVGDGNFSPQTDFGKIFTILYIFIGIGLVFGFIHKLAVNVQLPSILSNRKKE
notes: NaK non-selective cation channel, construct lacking the first 19 residues; model for molecular replacement was PDB 3E89; Tetrameric channel; in space group I4 the tetramer is generated from one monomer by crystal symmetry, and the two monomers of the asymmetric unit give two tetramers; also called NaK channel
B1: the “stoichiometry N” value in series [2] came to 4.
